Target: T1, flag-tagged p115 head domain (1-655) (human, UniProt O60763 1-655)
T1 sequence (looked up): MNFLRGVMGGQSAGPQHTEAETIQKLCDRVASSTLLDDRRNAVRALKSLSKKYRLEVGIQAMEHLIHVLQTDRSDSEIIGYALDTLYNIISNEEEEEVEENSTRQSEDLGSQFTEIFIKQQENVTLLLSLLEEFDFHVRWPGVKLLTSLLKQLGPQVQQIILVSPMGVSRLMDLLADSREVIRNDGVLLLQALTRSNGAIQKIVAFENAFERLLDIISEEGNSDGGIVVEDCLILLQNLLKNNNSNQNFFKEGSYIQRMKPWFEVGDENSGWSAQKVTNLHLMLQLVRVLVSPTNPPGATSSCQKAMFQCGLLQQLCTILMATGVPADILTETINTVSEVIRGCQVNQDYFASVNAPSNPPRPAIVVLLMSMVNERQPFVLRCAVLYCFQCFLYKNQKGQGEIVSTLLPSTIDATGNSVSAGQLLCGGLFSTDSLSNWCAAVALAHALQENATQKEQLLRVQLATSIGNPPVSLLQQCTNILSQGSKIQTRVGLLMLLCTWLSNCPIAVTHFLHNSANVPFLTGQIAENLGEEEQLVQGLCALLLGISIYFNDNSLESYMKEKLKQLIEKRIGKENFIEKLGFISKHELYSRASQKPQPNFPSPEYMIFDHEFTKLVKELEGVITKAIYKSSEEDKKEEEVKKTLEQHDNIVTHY
Experiment: pull-down

binding result: binds
B1: Sec16A(650-776)-GFP (domain or fragment, human, UniProt O15027 650-776, looked up)
chain: ALPDASPGNLEQPPDNMETLCAPQVCPLPLNSTTEAVHMLPHAGAPPLDTVYPAPEKRPSARTQGPVKCESPATTLWAQSELPDFGGNVLLAPAAPALYVCAKPQPPVVQPPEEAMSGQQSRNPSSA

Source: article doi:10.1101/2025.10.16.682774 (bioRxiv, 2025)
